Data reported in US20100266614A1 (AstraZeneca / MedImmune, published 2010).

How the values were obtained:
[1] = target: T1, RSV F protein (C-terminal truncated F protein secreted from a recombinant baculovirus) (respiratory syncytial virus (RSV), UniProt P03420 26-524); experiment: ELISA titration of antibody on RSV F antigen, O.D. 560
T1 construct: also called F antigen; RSV F antigen

[2] = target: T1, RSV F protein (C-terminal truncated F …); experiment: ELISA titration of antibody on 500 ng RSV F antigen; qualitative score from titration curves
[3] = target: T1, RSV F protein (C-terminal truncated F …); experiment: SPR (BIAcore), F protein immobilized by EDC/NHS, Fab injected; kon and koff measured separately
[4] = target: T1, RSV F protein (C-terminal truncated F …); experiment: SPR (BIAcore), F protein immobilized by EDC/NHS, Fab injected; calculated from the rate constants
[5] = target: T1, RSV F protein (C-terminal truncated F …); experiment: SPR (BIAcore), from the kinetic constants of Table 4

T1 sequence (P03420 26-109, chain 1 of 2): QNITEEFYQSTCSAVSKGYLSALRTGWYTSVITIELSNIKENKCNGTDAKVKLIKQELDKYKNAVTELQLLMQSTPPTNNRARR
T1 sequence (P03420 137-524, chain 2 of 2): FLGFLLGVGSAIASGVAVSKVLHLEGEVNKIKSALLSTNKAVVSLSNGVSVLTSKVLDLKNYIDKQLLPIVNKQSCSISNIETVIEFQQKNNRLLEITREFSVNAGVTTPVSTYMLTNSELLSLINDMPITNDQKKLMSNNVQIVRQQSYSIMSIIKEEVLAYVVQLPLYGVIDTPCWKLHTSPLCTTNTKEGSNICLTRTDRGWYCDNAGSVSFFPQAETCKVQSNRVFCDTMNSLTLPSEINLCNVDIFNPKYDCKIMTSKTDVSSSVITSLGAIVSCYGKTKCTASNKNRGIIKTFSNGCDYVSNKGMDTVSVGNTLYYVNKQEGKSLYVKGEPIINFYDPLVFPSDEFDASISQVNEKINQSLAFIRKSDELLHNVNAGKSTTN

B1: 16 (antibody, V domains shown)
VH: QVTLRESGPALVKPTQTLTLTCTFSGFSLSTAGMSVGWIRQPPGKALEWLADIWWDDKKDYNPSLKSRLTISKDTSKNQVVLKVTNMDPADTATYYCARSMITNWYFDVWGQGTTVTVSS
VL: DIQMTQSPSTLSASVGDRVTITCSASSSVGYMHWYQQKPGKAPKLLIYDTSKLASGVPSRFSGSGSGTEFTLTISSLQPDDFATYYCFQGSGYPFTFGGGTKVEIK
notes: also called AWSG
[1]
  EC50 (read off the curve): ~0.03 µg/mL

B2: clone 6 (PFYF) (antibody, V domains shown)
VH: QVTLRESGPALVKPTQTLTLTCTFSGFSLSTPGMSVGWIRQPPGKALEWLADIWWDDKKDYNPSLKSRLTISKDTSKNQVVLKVTNMDPADTATYYCARSMITNFYFDVWGQGTTVTVSS
VL: DIQMTQSPSTLSASVGDRVTITCSASSSVGYMHWYQQKPGKAPKLLIYDTYKLASGVPSRFSGSGSGTEFTLTISSLQPDDFATYYCFQGSFYPFTFGGGTKVEIK
[1]
  EC50 (read off the curve): ~0.02 µg/mL
[2]
  Ag Score: 3.5 arbitrary score 0-4

B3: clone 12 (PWFF) (antibody, V domains shown)
VH: QVTLRESGPALVKPTQTLTLTCTFSGFSLSTPGMSVGWIRQPPGKALEWLADIWWDDKKDYNPSLKSRLTISKDTSKNQVVLKVTNMDPADTATYYCARSMITNWYFDVWGQGTTVTVSS
VL: DIQMTQSPSTLSASVGDRVTITCSASSSVGYMHWYQQKPGKAPKLLIYDTFKLASGVPSRFSGSGSGTEFTLTISSLQPDDFATYYCFQGSFYPFTFGGGTKVEIK
notes: also called 12 (n = 2)
[2]
  Ag Score: 2.5 arbitrary score 0-4

B4: clone 5 (PFFW) (antibody, V domains shown)
VH: QVTLRESGPALVKPTQTLTLTCTFSGFSLSTPGMSVGWIRQPPGKALEWLADIWWDDKKDYNPSLKSRLTISKDTSKNQVVLKVTNMDPADTATYYCARSMITNFYFDVWGQGTTVTVSS
VL: DIQMTQSPSTLSASVGDRVTITCSASSSVGYMHWYQQKPGKAPKLLIYDTFKLASGVPSRFSGSGSGTEFTLTISSLQPDDFATYYCFQGSWYPFTFGGGTKVEIK
notes: also called 5 (n = 3)
[2]
  Ag Score: 3.5 arbitrary score 0-4

B5: clone 22 (AFFF) (Fab, V domains shown)
VH: QVTLRESGPALVKPTQTLTLTCTFSGFSLSTAGMSVGWIRQPPGKALEWLADIWWDDKKDYNPSLKSRLTISKDTSKNQVVLKVTNMDPADTATYYCARSMITNFYFDVWGQGTTVTVSS
VL: DIQMTQSPSTLSASVGDRVTITCSASSSVGYMHWYQQKPGKAPKLLIYDTFKLASGVPSRFSGSGSGTEFTLTISSLQPDDFATYYCFQGSFYPFTFGGGTKVEIK
notes: also called 4D2-7
[3]
  koff: 3.7e-07 s⁻¹
  kon: 134000 M⁻¹ s⁻¹
[4]
  Ka: 3.62e+11 M⁻¹
[5]
  Kd: ~2.8 pM

B6: clone 16 (PFSG) (antibody, V domains shown)
VH: QVTLRESGPALVKPTQTLTLTCTFSGFSLSTPGMSVGWIRQPPGKALEWLADIWWDDKKDYNPSLKSRLTISKDTSKNQVVLKVTNMDPADTATYYCARSMITNFYFDVWGQGTTVTVSS
VL: DIQMTQSPSTLSASVGDRVTITCSASSSVGYMHWYQQKPGKAPKLLIYDTSKLASGVPSRFSGSGSGTEFTLTISSLQPDDFATYYCFQGSGYPFTFGGGTKVEIK
notes: also called 16 (n = 2)
[2]
  Ag Score: 2 arbitrary score 0-4

B7: clone 4 (PFFY) (antibody, V domains shown)
VH: QVTLRESGPALVKPTQTLTLTCTFSGFSLSTPGMSVGWIRQPPGKALEWLADIWWDDKKDYNPSLKSRLTISKDTSKNQVVLKVTNMDPADTATYYCARSMITNFYFDVWGQGTTVTVSS
VL: DIQMTQSPSTLSASVGDRVTITCSASSSVGYMHWYQQKPGKAPKLLIYDTFKLASGVPSRFSGSGSGTEFTLTISSLQPDDFATYYCFQGSYYPFTFGGGTKVEIK
notes: also called 4 (n = 3)
[1]
  EC50 (read off the curve): ~0.01 µg/mL
[2]
  Ag Score: 3.5 arbitrary score 0-4

B8: clone 9 (PFSW) (antibody, V domains shown)
VH: QVTLRESGPALVKPTQTLTLTCTFSGFSLSTPGMSVGWIRQPPGKALEWLADIWWDDKKDYNPSLKSRLTISKDTSKNQVVLKVTNMDPADTATYYCARSMITNFYFDVWGQGTTVTVSS
VL: DIQMTQSPSTLSASVGDRVTITCSASSSVGYMHWYQQKPGKAPKLLIYDTSKLASGVPSRFSGSGSGTEFTLTISSLQPDDFATYYCFQGSWYPFTFGGGTKVEIK
notes: also called 9 (n = 2)
[2]
  Ag Score: 3 arbitrary score 0-4

B9: clone 18 (SFFG) (antibody, V domains shown)
VH: QVTLRESGPALVKPTQTLTLTCTFSGFSLSTSGMSVGWIRQPPGKALEWLADIWWDDKKDYNPSLKSRLTISKDTSKNQVVLKVTNMDPADTATYYCARSMITNFYFDVWGQGTTVTVSS
VL: DIQMTQSPSTLSASVGDRVTITCSASSSVGYMHWYQQKPGKAPKLLIYDTFKLASGVPSRFSGSGSGTEFTLTISSLQPDDFATYYCFQGSGYPFTFGGGTKVEIK
notes: also called 18 (n = 2)
[2]
  Ag Score: 2 arbitrary score 0-4

B10: clone 14 (SFFW) (antibody, V domains shown)
VH: QVTLRESGPALVKPTQTLTLTCTFSGFSLSTSGMSVGWIRQPPGKALEWLADIWWDDKKDYNPSLKSRLTISKDTSKNQVVLKVTNMDPADTATYYCARSMITNFYFDVWGQGTTVTVSS
VL: DIQMTQSPSTLSASVGDRVTITCSASSSVGYMHWYQQKPGKAPKLLIYDTFKLASGVPSRFSGSGSGTEFTLTISSLQPDDFATYYCFQGSWYPFTFGGGTKVEIK
[2]
  Ag Score: 2.5 arbitrary score 0-4

B11: IX-493 (SWSG), basic or reference antibody (Fab, V domains shown)
VH: QVTLRESGPALVKPTQTLTLTCTFSGFSLSTSGMSVGWIRQPPGKALEWLADIWWDDKKDYNPSLKSRLTISKDTSKNQVVLKVTNMDPADTATYYCARSMITNWYFDVWGQGTTVTVSS
VL: DIQMTQSPSTLSASVGDRVTITCSASSSVGYMHWYQQKPGKAPKLLIYDTSKLASGVPSRFSGSGSGTEFTLTISSLQPDDFATYYCFQGSGYPFTFGGGTKVEIK
notes: also called basic antibody
[1]
  EC50 (read off the curve): ~0.2 µg/mL
[2]
  Ag Score: 0.1 arbitrary score 0-4

B12: clone 21 (SWYF) (antibody, V domains shown)
VH: QVTLRESGPALVKPTQTLTLTCTFSGFSLSTSGMSVGWIRQPPGKALEWLADIWWDDKKDYNPSLKSRLTISKDTSKNQVVLKVTNMDPADTATYYCARSMITNWYFDVWGQGTTVTVSS
VL: DIQMTQSPSTLSASVGDRVTITCSASSSVGYMHWYQQKPGKAPKLLIYDTYKLASGVPSRFSGSGSGTEFTLTISSLQPDDFATYYCFQGSFYPFTFGGGTKVEIK
[2]
  Ag Score: 2 arbitrary score 0-4

B13: clone 20 (SFSF) (antibody, V domains shown)
VH: QVTLRESGPALVKPTQTLTLTCTFSGFSLSTSGMSVGWIRQPPGKALEWLADIWWDDKKDYNPSLKSRLTISKDTSKNQVVLKVTNMDPADTATYYCARSMITNFYFDVWGQGTTVTVSS
VL: DIQMTQSPSTLSASVGDRVTITCSASSSVGYMHWYQQKPGKAPKLLIYDTSKLASGVPSRFSGSGSGTEFTLTISSLQPDDFATYYCFQGSFYPFTFGGGTKVEIK
[2]
  Ag Score: 2 arbitrary score 0-4

B14: clone 19 (SFSW) (antibody, V domains shown)
VH: QVTLRESGPALVKPTQTLTLTCTFSGFSLSTSGMSVGWIRQPPGKALEWLADIWWDDKKDYNPSLKSRLTISKDTSKNQVVLKVTNMDPADTATYYCARSMITNFYFDVWGQGTTVTVSS
VL: DIQMTQSPSTLSASVGDRVTITCSASSSVGYMHWYQQKPGKAPKLLIYDTSKLASGVPSRFSGSGSGTEFTLTISSLQPDDFATYYCFQGSWYPFTFGGGTKVEIK
[2]
  Ag Score: 2 arbitrary score 0-4

B15: clone 7 (PFFG) (antibody, V domains shown)
VH: QVTLRESGPALVKPTQTLTLTCTFSGFSLSTPGMSVGWIRQPPGKALEWLADIWWDDKKDYNPSLKSRLTISKDTSKNQVVLKVTNMDPADTATYYCARSMITNFYFDVWGQGTTVTVSS
VL: DIQMTQSPSTLSASVGDRVTITCSASSSVGYMHWYQQKPGKAPKLLIYDTFKLASGVPSRFSGSGSGTEFTLTISSLQPDDFATYYCFQGSGYPFTFGGGTKVEIK
notes: also called 7 (n = 4)
[2]
  Ag Score: 3 arbitrary score 0-4

B16: clone 15 (AFSG) (antibody, V domains shown)
VH: QVTLRESGPALVKPTQTLTLTCTFSGFSLSTAGMSVGWIRQPPGKALEWLADIWWDDKKDYNPSLKSRLTISKDTSKNQVVLKVTNMDPADTATYYCARSMITNFYFDVWGQGTTVTVSS
VL: DIQMTQSPSTLSASVGDRVTITCSASSSVGYMHWYQQKPGKAPKLLIYDTSKLASGVPSRFSGSGSGTEFTLTISSLQPDDFATYYCFQGSGYPFTFGGGTKVEIK
notes: also called 15 (n = 2)
[2]
  Ag Score: 2.5 arbitrary score 0-4

B17: clone 13 (SFFF) (antibody, V domains shown)
VH: QVTLRESGPALVKPTQTLTLTCTFSGFSLSTSGMSVGWIRQPPGKALEWLADIWWDDKKDYNPSLKSRLTISKDTSKNQVVLKVTNMDPADTATYYCARSMITNFYFDVWGQGTTVTVSS
VL: DIQMTQSPSTLSASVGDRVTITCSASSSVGYMHWYQQKPGKAPKLLIYDTFKLASGVPSRFSGSGSGTEFTLTISSLQPDDFATYYCFQGSFYPFTFGGGTKVEIK
notes: also called 13 (n = 3)
[2]
  Ag Score: 2.5 arbitrary score 0-4

B18: clone 10 (PFSF) (antibody, V domains shown)
VH: QVTLRESGPALVKPTQTLTLTCTFSGFSLSTPGMSVGWIRQPPGKALEWLADIWWDDKKDYNPSLKSRLTISKDTSKNQVVLKVTNMDPADTATYYCARSMITNFYFDVWGQGTTVTVSS
VL: DIQMTQSPSTLSASVGDRVTITCSASSSVGYMHWYQQKPGKAPKLLIYDTSKLASGVPSRFSGSGSGTEFTLTISSLQPDDFATYYCFQGSFYPFTFGGGTKVEIK
[2]
  Ag Score: 3 arbitrary score 0-4

B19: clone 11 (PWFW) (antibody, V domains shown)
VH: QVTLRESGPALVKPTQTLTLTCTFSGFSLSTPGMSVGWIRQPPGKALEWLADIWWDDKKDYNPSLKSRLTISKDTSKNQVVLKVTNMDPADTATYYCARSMITNWYFDVWGQGTTVTVSS
VL: DIQMTQSPSTLSASVGDRVTITCSASSSVGYMHWYQQKPGKAPKLLIYDTFKLASGVPSRFSGSGSGTEFTLTISSLQPDDFATYYCFQGSWYPFTFGGGTKVEIK
[2]
  Ag Score: 3 arbitrary score 0-4

B20: clone 17 (PWSW) (antibody, V domains shown)
VH: QVTLRESGPALVKPTQTLTLTCTFSGFSLSTPGMSVGWIRQPPGKALEWLADIWWDDKKDYNPSLKSRLTISKDTSKNQVVLKVTNMDPADTATYYCARSMITNWYFDVWGQGTTVTVSS
VL: DIQMTQSPSTLSASVGDRVTITCSASSSVGYMHWYQQKPGKAPKLLIYDTSKLASGVPSRFSGSGSGTEFTLTISSLQPDDFATYYCFQGSWYPFTFGGGTKVEIK
[1]
  EC50 (read off the curve): ~0.04 µg/mL
[2]
  Ag Score: 2 arbitrary score 0-4
